Measured values from patent publication US20110118131A1 (published 2011).

B1: XPA23 light chain H49D (Fab, V domains shown)
VH: EVQLLESGGGLVQPGGSLRLSCAASGFTFSKYFMFWVRQAPGKGLEWVSVISPSGGMTRYADSVKGRFTISRDNSKNTLYLQMNSLRAEDTAVYYCARVGYGGNSDYWGQGTLVTVSS
VL: DIQMTQSPSSVSASVGDRLTIICRASQDINRWLAWYQQTPGNAPKLLIDSATSLQSGVPSRFSGSGSGTDFTLTINSLQPEDFATYYCQQADSFPLTFGGGTKVEIK
B2: XPA23 light chain H49S (Fab, V domains shown)
VH: EVQLLESGGGLVQPGGSLRLSCAASGFTFSKYFMFWVRQAPGKGLEWVSVISPSGGMTRYADSVKGRFTISRDNSKNTLYLQMNSLRAEDTAVYYCARVGYGGNSDYWGQGTLVTVSS
VL: DIQMTQSPSSVSASVGDRLTIICRASQDINRWLAWYQQTPGNAPKLLISSATSLQSGVPSRFSGSGSGTDFTLTINSLQPEDFATYYCQQADSFPLTFGGGTKVEIK
B3: XPA23 light chain H49G (Fab, V domains shown)
VH: EVQLLESGGGLVQPGGSLRLSCAASGFTFSKYFMFWVRQAPGKGLEWVSVISPSGGMTRYADSVKGRFTISRDNSKNTLYLQMNSLRAEDTAVYYCARVGYGGNSDYWGQGTLVTVSS
VL: DIQMTQSPSSVSASVGDRLTIICRASQDINRWLAWYQQTPGNAPKLLIGSATSLQSGVPSRFSGSGSGTDFTLTINSLQPEDFATYYCQQADSFPLTFGGGTKVEIK
B4: XPA23 light chain H49E (Fab, V domains shown)
VH: EVQLLESGGGLVQPGGSLRLSCAASGFTFSKYFMFWVRQAPGKGLEWVSVISPSGGMTRYADSVKGRFTISRDNSKNTLYLQMNSLRAEDTAVYYCARVGYGGNSDYWGQGTLVTVSS
VL: DIQMTQSPSSVSASVGDRLTIICRASQDINRWLAWYQQTPGNAPKLLIESATSLQSGVPSRFSGSGSGTDFTLTINSLQPEDFATYYCQQADSFPLTFGGGTKVEIK
B5: XPA23 light chain H49V (Fab, V domains shown)
VH: EVQLLESGGGLVQPGGSLRLSCAASGFTFSKYFMFWVRQAPGKGLEWVSVISPSGGMTRYADSVKGRFTISRDNSKNTLYLQMNSLRAEDTAVYYCARVGYGGNSDYWGQGTLVTVSS
VL: DIQMTQSPSSVSASVGDRLTIICRASQDINRWLAWYQQTPGNAPKLLIVSATSLQSGVPSRFSGSGSGTDFTLTINSLQPEDFATYYCQQADSFPLTFGGGTKVEIK
B6: XPA23 light chain H49P (Fab, V domains shown)
VH: EVQLLESGGGLVQPGGSLRLSCAASGFTFSKYFMFWVRQAPGKGLEWVSVISPSGGMTRYADSVKGRFTISRDNSKNTLYLQMNSLRAEDTAVYYCARVGYGGNSDYWGQGTLVTVSS
VL: DIQMTQSPSSVSASVGDRLTIICRASQDINRWLAWYQQTPGNAPKLLIPSATSLQSGVPSRFSGSGSGTDFTLTINSLQPEDFATYYCQQADSFPLTFGGGTKVEIK
B7: XPA23 light chain H49I (Fab, V domains shown)
VH: EVQLLESGGGLVQPGGSLRLSCAASGFTFSKYFMFWVRQAPGKGLEWVSVISPSGGMTRYADSVKGRFTISRDNSKNTLYLQMNSLRAEDTAVYYCARVGYGGNSDYWGQGTLVTVSS
VL: DIQMTQSPSSVSASVGDRLTIICRASQDINRWLAWYQQTPGNAPKLLIISATSLQSGVPSRFSGSGSGTDFTLTINSLQPEDFATYYCQQADSFPLTFGGGTKVEIK
B8: XPA23 light chain L96H (Fab, V domains shown)
VH: EVQLLESGGGLVQPGGSLRLSCAASGFTFSKYFMFWVRQAPGKGLEWVSVISPSGGMTRYADSVKGRFTISRDNSKNTLYLQMNSLRAEDTAVYYCARVGYGGNSDYWGQGTLVTVSS
VL: DIQMTQSPSSVSASVGDRLTIICRASQDINRWLAWYQQTPGNAPKLLIHSATSLQSGVPSRFSGSGSGTDFTLTINSLQPEDFATYYCQQADSFPHTFGGGTKVEIK
B9: XPA23 light chain L96F (Fab, V domains shown)
VH: EVQLLESGGGLVQPGGSLRLSCAASGFTFSKYFMFWVRQAPGKGLEWVSVISPSGGMTRYADSVKGRFTISRDNSKNTLYLQMNSLRAEDTAVYYCARVGYGGNSDYWGQGTLVTVSS
VL: DIQMTQSPSSVSASVGDRLTIICRASQDINRWLAWYQQTPGNAPKLLIHSATSLQSGVPSRFSGSGSGTDFTLTINSLQPEDFATYYCQQADSFPFTFGGGTKVEIK
B10: XPA23 light chain H49W (Fab, V domains shown)
VH: EVQLLESGGGLVQPGGSLRLSCAASGFTFSKYFMFWVRQAPGKGLEWVSVISPSGGMTRYADSVKGRFTISRDNSKNTLYLQMNSLRAEDTAVYYCARVGYGGNSDYWGQGTLVTVSS
VL: DIQMTQSPSSVSASVGDRLTIICRASQDINRWLAWYQQTPGNAPKLLIWSATSLQSGVPSRFSGSGSGTDFTLTINSLQPEDFATYYCQQADSFPLTFGGGTKVEIK
B11: XPA23 light chain H49F (Fab, V domains shown)
VH: EVQLLESGGGLVQPGGSLRLSCAASGFTFSKYFMFWVRQAPGKGLEWVSVISPSGGMTRYADSVKGRFTISRDNSKNTLYLQMNSLRAEDTAVYYCARVGYGGNSDYWGQGTLVTVSS
VL: DIQMTQSPSSVSASVGDRLTIICRASQDINRWLAWYQQTPGNAPKLLIFSATSLQSGVPSRFSGSGSGTDFTLTINSLQPEDFATYYCQQADSFPLTFGGGTKVEIK
B12: XPA23 light chain H49K (Fab, V domains shown)
VH: EVQLLESGGGLVQPGGSLRLSCAASGFTFSKYFMFWVRQAPGKGLEWVSVISPSGGMTRYADSVKGRFTISRDNSKNTLYLQMNSLRAEDTAVYYCARVGYGGNSDYWGQGTLVTVSS
VL: DIQMTQSPSSVSASVGDRLTIICRASQDINRWLAWYQQTPGNAPKLLIKSATSLQSGVPSRFSGSGSGTDFTLTINSLQPEDFATYYCQQADSFPLTFGGGTKVEIK
B13: XPA23 light chain L96K (Fab, V domains shown)
VH: EVQLLESGGGLVQPGGSLRLSCAASGFTFSKYFMFWVRQAPGKGLEWVSVISPSGGMTRYADSVKGRFTISRDNSKNTLYLQMNSLRAEDTAVYYCARVGYGGNSDYWGQGTLVTVSS
VL: DIQMTQSPSSVSASVGDRLTIICRASQDINRWLAWYQQTPGNAPKLLIHSATSLQSGVPSRFSGSGSGTDFTLTINSLQPEDFATYYCQQADSFPKTFGGGTKVEIK
B14: XPA23 light chain H49T (Fab, V domains shown)
VH: EVQLLESGGGLVQPGGSLRLSCAASGFTFSKYFMFWVRQAPGKGLEWVSVISPSGGMTRYADSVKGRFTISRDNSKNTLYLQMNSLRAEDTAVYYCARVGYGGNSDYWGQGTLVTVSS
VL: DIQMTQSPSSVSASVGDRLTIICRASQDINRWLAWYQQTPGNAPKLLITSATSLQSGVPSRFSGSGSGTDFTLTINSLQPEDFATYYCQQADSFPLTFGGGTKVEIK
B15: XPA23 light chain H49Q (Fab, V domains shown)
VH: EVQLLESGGGLVQPGGSLRLSCAASGFTFSKYFMFWVRQAPGKGLEWVSVISPSGGMTRYADSVKGRFTISRDNSKNTLYLQMNSLRAEDTAVYYCARVGYGGNSDYWGQGTLVTVSS
VL: DIQMTQSPSSVSASVGDRLTIICRASQDINRWLAWYQQTPGNAPKLLIQSATSLQSGVPSRFSGSGSGTDFTLTINSLQPEDFATYYCQQADSFPLTFGGGTKVEIK
B16: XPA23 light chain L96E (Fab, V domains shown)
VH: EVQLLESGGGLVQPGGSLRLSCAASGFTFSKYFMFWVRQAPGKGLEWVSVISPSGGMTRYADSVKGRFTISRDNSKNTLYLQMNSLRAEDTAVYYCARVGYGGNSDYWGQGTLVTVSS
VL: DIQMTQSPSSVSASVGDRLTIICRASQDINRWLAWYQQTPGNAPKLLIHSATSLQSGVPSRFSGSGSGTDFTLTINSLQPEDFATYYCQQADSFPETFGGGTKVEIK
B17: XPA23 light chain H49Y (Fab, V domains shown)
VH: EVQLLESGGGLVQPGGSLRLSCAASGFTFSKYFMFWVRQAPGKGLEWVSVISPSGGMTRYADSVKGRFTISRDNSKNTLYLQMNSLRAEDTAVYYCARVGYGGNSDYWGQGTLVTVSS
VL: DIQMTQSPSSVSASVGDRLTIICRASQDINRWLAWYQQTPGNAPKLLIYSATSLQSGVPSRFSGSGSGTDFTLTINSLQPEDFATYYCQQADSFPLTFGGGTKVEIK
B18: XPA23 light chain L96D (Fab, V domains shown)
VH: EVQLLESGGGLVQPGGSLRLSCAASGFTFSKYFMFWVRQAPGKGLEWVSVISPSGGMTRYADSVKGRFTISRDNSKNTLYLQMNSLRAEDTAVYYCARVGYGGNSDYWGQGTLVTVSS
VL: DIQMTQSPSSVSASVGDRLTIICRASQDINRWLAWYQQTPGNAPKLLIHSATSLQSGVPSRFSGSGSGTDFTLTINSLQPEDFATYYCQQADSFPDTFGGGTKVEIK
B19: XPA23 light chain H49N (Fab, V domains shown)
VH: EVQLLESGGGLVQPGGSLRLSCAASGFTFSKYFMFWVRQAPGKGLEWVSVISPSGGMTRYADSVKGRFTISRDNSKNTLYLQMNSLRAEDTAVYYCARVGYGGNSDYWGQGTLVTVSS
VL: DIQMTQSPSSVSASVGDRLTIICRASQDINRWLAWYQQTPGNAPKLLINSATSLQSGVPSRFSGSGSGTDFTLTINSLQPEDFATYYCQQADSFPLTFGGGTKVEIK
B20: XPA23 light chain L96N (Fab, V domains shown)
VH: EVQLLESGGGLVQPGGSLRLSCAASGFTFSKYFMFWVRQAPGKGLEWVSVISPSGGMTRYADSVKGRFTISRDNSKNTLYLQMNSLRAEDTAVYYCARVGYGGNSDYWGQGTLVTVSS
VL: DIQMTQSPSSVSASVGDRLTIICRASQDINRWLAWYQQTPGNAPKLLIHSATSLQSGVPSRFSGSGSGTDFTLTINSLQPEDFATYYCQQADSFPNTFGGGTKVEIK
B21: XPA23 light chain H49L (Fab, V domains shown)
VH: EVQLLESGGGLVQPGGSLRLSCAASGFTFSKYFMFWVRQAPGKGLEWVSVISPSGGMTRYADSVKGRFTISRDNSKNTLYLQMNSLRAEDTAVYYCARVGYGGNSDYWGQGTLVTVSS
VL: DIQMTQSPSSVSASVGDRLTIICRASQDINRWLAWYQQTPGNAPKLLILSATSLQSGVPSRFSGSGSGTDFTLTINSLQPEDFATYYCQQADSFPLTFGGGTKVEIK
B22: XPA23 light chain H49R (Fab, V domains shown)
VH: EVQLLESGGGLVQPGGSLRLSCAASGFTFSKYFMFWVRQAPGKGLEWVSVISPSGGMTRYADSVKGRFTISRDNSKNTLYLQMNSLRAEDTAVYYCARVGYGGNSDYWGQGTLVTVSS
VL: DIQMTQSPSSVSASVGDRLTIICRASQDINRWLAWYQQTPGNAPKLLIRSATSLQSGVPSRFSGSGSGTDFTLTINSLQPEDFATYYCQQADSFPLTFGGGTKVEIK

Target: T1, IL-1β (UniProt P01584 117-269)
T1 construct: Antigen immobilised on the Biacore chip
Assay: Biacore, periplasmic extract

| Binder | fold difference in affinity vs original | binding result |
| --- | --- | --- |
| B1 | 0.11 fold |  |
| B2 | 0.14 fold |  |
| B3 |  | no binding |
| B4 |  | no binding |
| B5 |  | no binding |
| B6 | 0.86 fold |  |
| B7 |  | no binding |
| B8 | 0.07 fold |  |
| B9 | 0.28 fold |  |
| B10 | 0.21 fold |  |
| B11 | 0.5 fold |  |
| B12 | 0.1 fold |  |
| B13 |  | no binding |
| B14 |  | no binding |
| B15 |  | no binding |
| B16 |  | no binding |
| B17 | 0.52 fold |  |
| B18 |  | no binding |
| B19 | 0.31 fold |  |
| B20 | 0.06 fold |  |
| B21 | 0.07 fold |  |
| B22 | 0.21 fold |  |
